This note sets out measurements from patent US20140087995A1 (published 2014).

Numbered stars: 1 amine (or outer) side, 2 acyl side, 3 side chain; on linkers, the order of the positions; unused ones are H or OH. Bridge positions count the residues as written; N and C are the ends. Side chains are listed from the residue outwards. Ends that are not written are not given here. * marks the point of attachment. C20 diacid = O=C(O)CCCCCCCCCCCCCCCCCCC(=O)*; γGlu = O=C(O)[C@H](CCC(=O)[*:2])N[*:1]

The term IC50 denotes the concentration that gives 50% inhibition.

Assay [1] deals with T1, rat calcitonin receptor (rat, UniProt P32214 25-516).
T1 construct: whole, on cells; In cell membranes prepared from transiently transfected BHK tk'ts 13 cells (Assay VIII); also called rCTR; rat calcitonin (a) receptor
T1 sequence (looked up): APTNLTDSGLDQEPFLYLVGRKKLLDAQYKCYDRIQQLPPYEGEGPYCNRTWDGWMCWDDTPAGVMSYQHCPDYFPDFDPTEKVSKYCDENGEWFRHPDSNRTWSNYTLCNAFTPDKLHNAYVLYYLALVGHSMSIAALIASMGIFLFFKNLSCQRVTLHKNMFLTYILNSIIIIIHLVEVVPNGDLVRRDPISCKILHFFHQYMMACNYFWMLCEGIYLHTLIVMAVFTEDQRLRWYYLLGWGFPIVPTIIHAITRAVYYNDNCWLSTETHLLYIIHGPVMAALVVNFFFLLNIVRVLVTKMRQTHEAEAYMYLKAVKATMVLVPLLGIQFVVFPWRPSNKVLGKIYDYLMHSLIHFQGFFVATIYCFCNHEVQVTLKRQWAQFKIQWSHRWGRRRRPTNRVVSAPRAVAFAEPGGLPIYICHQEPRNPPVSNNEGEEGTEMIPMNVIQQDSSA
Nature of the assay: ratio of binding IC50s: rat calcitonin receptor (Assay VIII) over rat amylin receptor (Assay VI).

In assay [2] the target is T2, human calcitonin receptor (human, UniProt P30988 25-474).
T2 construct: whole, on cells; Cell membranes from the stably transfected cell line (Assay VII); also called hCTR; hCT
T2 sequence (looked up): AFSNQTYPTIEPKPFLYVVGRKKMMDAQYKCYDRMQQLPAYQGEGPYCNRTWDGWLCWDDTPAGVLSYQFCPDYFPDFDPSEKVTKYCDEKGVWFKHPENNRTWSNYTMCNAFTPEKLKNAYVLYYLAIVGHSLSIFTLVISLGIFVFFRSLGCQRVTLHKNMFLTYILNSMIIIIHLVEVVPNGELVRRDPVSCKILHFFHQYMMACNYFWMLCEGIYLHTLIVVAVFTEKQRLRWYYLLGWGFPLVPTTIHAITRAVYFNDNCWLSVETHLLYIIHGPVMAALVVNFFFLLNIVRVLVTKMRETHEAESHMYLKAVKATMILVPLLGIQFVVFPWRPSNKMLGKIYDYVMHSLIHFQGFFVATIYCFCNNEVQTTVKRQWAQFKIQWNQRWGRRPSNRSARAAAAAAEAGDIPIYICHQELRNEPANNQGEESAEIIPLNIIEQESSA
Nature of the assay: ratio of binding IC50s: human calcitonin receptor (Assay VII) over human amylin receptor (Assay V). Here is the method:
The resulting pellet was resuspended, homogenized and centrifuged (20.000 rpm, 15 min) in a buffer containing 20 mM Na-HEPES and 0.1 mM EDTA (pH 7.4, buffer 2). The resulting pellet was resuspended in buffer 2 and protein concentration was measured (BCA protein Assay, Pierce). The homogenate was kept cold during the whole procedure. The membranes were kept at −80° C. until use. The assay was performed in a 384 well Optiplate (PerkinElmer) in a total volume of 40 ul. Membranes were mixed with SPA beads. Final concentration of membranes 35 ng/μL final and SPA beads was 0.05 mg/well. Test-compounds were dissolved in DMSO and further diluted in assay buffer (50 mM Hepes, pH 7.4, 1 mM CaCl2, 5 mM MgCl₂, 0.1% OA and 0.02% Tween20). […] The final mixture was incubated with shaking at 400 rpm for 120 min at 25° C. prior to centrifugation (1500 rpm, 10 min). Samples were analyzed on TopCounter™ (Packard). The IC₅₀ was calculated using (one site binding competition analysis) GraphPad Prism5 as a measure of receptor affinity.
Membranes were prepared in the following way; the cells were rinsed with PBS and incubated with Versene for approximately 5 min before harvesting. The cells were flushed with PBS and the cell-suspension was centrifuged for 5 min at 1000 rpm. Cells were homogenized (Ultrathurrax) in a buffer containing 20 mM Na-HEPES and 10 mM EDTA (pH 7.4) and centrifuged at 20.000 rpm for 15 min. The resulting pellet was resuspended, homogenized and centrifuged (20.000 rpm, 15 min) in a buffer containing 20 mM Na-HEPES and 0.1 mM EDTA (pH 7.4, buffer 2). The resulting pellet was resuspended in buffer 2 and protein concentration was measured (BCA protein Assay, Pierce). The homogenate was kept cold during the whole procedure. The membranes were kept at −80° C. until use. Assay was performed in a 384 well Optiplate (PerkinElmer) in a total volume of 40 ul. Membranes were mixed with SPA beads.

The target in assay [3] is T1, rat calcitonin receptor. Nature of the assay: SPA competition binding, displacement of 125I-Calcitonin from membranes of BHK tk'ts 13 cells with rat calcitonin receptor (Assay VIII). Background: In a radioligand displacement assay an active substance lowers the binding of a labelled ligand.
Assay [4] addresses T3, rat amylin receptor (rat calcitonin receptor + rat RAMP 3) (rat, UniProt P32214 25-516; Q9JJ73 23-147).
T3 construct: whole, on cells; Receptor complex in cell membranes prepared from transiently transfected BHK tk'ts 13 cells (Assay VI); also called rAmylin-R; rat amylin 3(a) receptor
T3 sequence (looked up) 1: T1 sequence (looked up)
T3 sequence (looked up) 2: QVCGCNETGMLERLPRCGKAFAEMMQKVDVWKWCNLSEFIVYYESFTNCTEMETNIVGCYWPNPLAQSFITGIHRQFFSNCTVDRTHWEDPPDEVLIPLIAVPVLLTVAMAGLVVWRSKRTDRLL
Nature of the assay: SPA competition binding, displacement of 125I-rat amylin from membranes of BHK tk'ts 13 cells with rat calcitonin receptor + rat RAMP 3 (Assay VI). Here is the method:
The binding assay was performed using scintillation proximity assay (SPA) beads (RPNQ0001) from PerkinElmer and cell membranes from the Amylin 3(a)/CRE-luc cells (as described in Assay (II)) were used. Membranes were prepared in the following way; the cells were rinsed with PBS and incubated with Versene for approximately 5 min before harvesting. The cells were flushed with PBS and the cell-suspension was centrifuged for 5 min at 1000 rpm. Cells were homogenized (ultrathurrax) in a buffer containing 20 mM Na-HEPES and 10 mM EDTA (pH 7.4) and centrifuged at 20.000 rpm for 15 min. The resulting pellet was resuspended, homogenized and centrifuged (20.000 rpm, 15 min) in a buffer containing 20 mM Na-HEPES and 0.1 mM EDTA (pH 7.4, buffer 2). The resulting pellet was resuspended in buffer 2 and protein concentration was measured (BCA protein Assay, Pierce). The homogenate was kept cold during the whole procedure. The membranes were kept at −80° C. until use. The assay was performed in a 384 well Optiplate (PerkinElmer) in a total volume of 40 ul. Membranes were mixed with SPA beads. Final concentration of membranes 35 ng/μL final and SPA beads was 0.05 mg/well. Test-compounds were dissolved in DMSO and further diluted in assay buffer (50 mM Hepes, pH 7.4, 1 mM CaCl2, 5 mM MgCl₂, 0.1% OA and 0.02% Tween20). […] The final mixture was incubated with shaking at 400 rpm for 120 min at 25° C. prior to centrifugation (1500 rpm, 10 min). Samples were analyzed on TopCounter™ (Packard). The IC₅₀ was calculated using (one site binding competition analysis) GraphPad Prism5 as a measure of receptor affinity.
Cells were grown in DMEM with 10% FBS and 1% Pen/Strep. Approximately 48 hours after transfection, the cells were harvested and membranes were prepared.

B1: N^ε1-[(4S)-4-carboxy-4-(19-carboxynonadecanoylamino)butanoyl]-[Glu14,Arg17,Pro21,Pro27,His35]-h-amylin (peptide)
peptide: K([γGlu-C20 diacid])CNTATCATQRLAEFLRHSSPNFGAIPSSTNVGSHTY-NH2
modifications: disulfide 2-7; N-terminus assumed
SMILES: CC[C@H](C)[C@H](NC(=O)[C@H](C)NC(=O)CNC(=O)[C@H](Cc1ccccc1)NC(=O)[C@H](CC(N)=O)NC(=O)[C@@H]1CCCN1C(=O)[C@H](CO)NC(=O)[C@H](CO)NC(=O)[C@H](Cc1c[nH]cn1)NC(=O)[C@H](CCCNC(=N)N)NC(=O)[C@H](CC(C)C)NC(=O)[C@H](Cc1ccccc1)NC(=O)[C@H](CCC(=O)O)NC(=O)[C@H](C)NC(=O)[C@H](CC(C)C)NC(=O)[C@H](CCCNC(=N)N)NC(=O)[C@H](CCC(N)=O)NC(=O)[C@@H](NC(=O)[C@H](C)NC(=O)[C@@H]1CSSC[C@H](NC(=O)[C@@H](N)CCCCNC(=O)CC[C@H](NC(=O)CCCCCCCCCCCCCCCCCCC(=O)O)C(=O)O)C(=O)N[C@@H](CC(N)=O)C(=O)N[C@@H]([C@@H](C)O)C(=O)N[C@@H](C)C(=O)N[C@@H]([C@@H](C)O)C(=O)N1)[C@@H](C)O)C(=O)N1CCC[C@H]1C(=O)N[C@@H](CO)C(=O)N[C@@H](CO)C(=O)N[C@H](C(=O)N[C@@H](CC(N)=O)C(=O)N[C@H](C(=O)NCC(=O)N[C@@H](CO)C(=O)N[C@@H](Cc1c[nH]cn1)C(=O)N[C@H](C(=O)N[C@@H](Cc1ccc(O)cc1)C(N)=O)[C@@H](C)O)C(C)C)[C@@H](C)O
On to B1, for which the “Ratio rCT/rAmylin binding” value in assay [1] came out at 22.7. Besides, the “Ratio hCT/hAmylin binding” value in assay [2] was 26.4. Moreover, the IC50 amounted to 26.3 nM in assay [3] and 1.16 nM in assay [4].

B2: N^ε1-[(4S)-4-carboxy-4-[[(4S)-4-carboxy-4-(19-carboxynonadecanoylamino)butanoyl]amino]butanoyl]-[Glu14,Arg17,Pro21,Pro27,Pro34,His35]-h-amylin (peptide)
peptide: K([γGlu-γGlu-C20 diacid])CNTATCATQRLAEFLRHSSPNFGAIPSSTNVGPHTY-NH2
modifications: disulfide 2-7; N-terminus assumed
SMILES: CC[C@H](C)[C@H](NC(=O)[C@H](C)NC(=O)CNC(=O)[C@H](Cc1ccccc1)NC(=O)[C@H](CC(N)=O)NC(=O)[C@@H]1CCCN1C(=O)[C@H](CO)NC(=O)[C@H](CO)NC(=O)[C@H](Cc1c[nH]cn1)NC(=O)[C@H](CCCNC(=N)N)NC(=O)[C@H](CC(C)C)NC(=O)[C@H](Cc1ccccc1)NC(=O)[C@H](CCC(=O)O)NC(=O)[C@H](C)NC(=O)[C@H](CC(C)C)NC(=O)[C@H](CCCNC(=N)N)NC(=O)[C@H](CCC(N)=O)NC(=O)[C@@H](NC(=O)[C@H](C)NC(=O)[C@@H]1CSSC[C@H](NC(=O)[C@@H](N)CCCCNC(=O)CC[C@H](NC(=O)CC[C@H](NC(=O)CCCCCCCCCCCCCCCCCCC(=O)O)C(=O)O)C(=O)O)C(=O)N[C@@H](CC(N)=O)C(=O)N[C@@H]([C@@H](C)O)C(=O)N[C@@H](C)C(=O)N[C@@H]([C@@H](C)O)C(=O)N1)[C@@H](C)O)C(=O)N1CCC[C@H]1C(=O)N[C@@H](CO)C(=O)N[C@@H](CO)C(=O)N[C@H](C(=O)N[C@@H](CC(N)=O)C(=O)N[C@H](C(=O)NCC(=O)N1CCC[C@H]1C(=O)N[C@@H](Cc1c[nH]cn1)C(=O)N[C@H](C(=O)N[C@@H](Cc1ccc(O)cc1)C(N)=O)[C@@H](C)O)C(C)C)[C@@H](C)O
In the case of B2, in assay [1], the “Ratio rCT/rAmylin binding” value was found to be 73. The “Ratio hCT/hAmylin binding” value in assay [2] worked out at 27.3. Besides, the IC50 worked out at 21 nM in assay [3] and 0.288 nM in assay [4].

B3: N^ε1-[(4S)-4-carboxy-4-[[(4S)-4-carboxy-4-(19-carboxynonadecanoylamino)butanoyl]amino]butanoyl]-[Glu14,Arg17,Pro21,Pro27,Pro34,Glu35,Pro37]-h-amylin (peptide)
peptide: K([γGlu-γGlu-C20 diacid])CNTATCATQRLAEFLRHSSPNFGAIPSSTNVGPETP-NH2
modifications: disulfide 2-7; N-terminus assumed
SMILES: CC[C@H](C)[C@H](NC(=O)[C@H](C)NC(=O)CNC(=O)[C@H](Cc1ccccc1)NC(=O)[C@H](CC(N)=O)NC(=O)[C@@H]1CCCN1C(=O)[C@H](CO)NC(=O)[C@H](CO)NC(=O)[C@H](Cc1c[nH]cn1)NC(=O)[C@H](CCCNC(=N)N)NC(=O)[C@H](CC(C)C)NC(=O)[C@H](Cc1ccccc1)NC(=O)[C@H](CCC(=O)O)NC(=O)[C@H](C)NC(=O)[C@H](CC(C)C)NC(=O)[C@H](CCCNC(=N)N)NC(=O)[C@H](CCC(N)=O)NC(=O)[C@@H](NC(=O)[C@H](C)NC(=O)[C@@H]1CSSC[C@H](NC(=O)[C@@H](N)CCCCNC(=O)CC[C@H](NC(=O)CC[C@H](NC(=O)CCCCCCCCCCCCCCCCCCC(=O)O)C(=O)O)C(=O)O)C(=O)N[C@@H](CC(N)=O)C(=O)N[C@@H]([C@@H](C)O)C(=O)N[C@@H](C)C(=O)N[C@@H]([C@@H](C)O)C(=O)N1)[C@@H](C)O)C(=O)N1CCC[C@H]1C(=O)N[C@@H](CO)C(=O)N[C@@H](CO)C(=O)N[C@H](C(=O)N[C@@H](CC(N)=O)C(=O)N[C@H](C(=O)NCC(=O)N1CCC[C@H]1C(=O)N[C@@H](CCC(=O)O)C(=O)N[C@H](C(=O)N1CCC[C@H]1C(N)=O)[C@@H](C)O)C(C)C)[C@@H](C)O
In the case of B3, in assay [1], the “Ratio rCT/rAmylin binding” value stood at 10.6. Further, the “Ratio hCT/hAmylin binding” value in assay [2] was 0.4. Further, the results for the IC50 in assay [3] and in assay [4] were 1.61 nM and 0.152 nM, respectively.
